The assay concerns the target E4F1 (UniProt Q66K89). Briefly: co-IP, immunoblot. The conditions noted are these: reference: PA28γ wild type; sites T23. (In general: In western blotting, separated proteins are transferred to a membrane and probed.)

For PA28γ (from UniProt P61289) T23A, the “binding against the reference” value is on record as “weaker”.

(Values after publication PMC12800137.)
